The results in this text go back to a protein production outcome set (Wang et al. 2014).

The data set is described as follows: label from the status in PepcDB records.

As for “MLKEILSSALLMLIMIDPSDKILLVSLLREDFHIEDVKSLIIRANLIGFILLLLFAVAGKIILQDIFHIELDALRVAGGFVLFKIGLEALEGGGMVTIKREKNILALAAVPVATPLIAGPAAITAAITLTAEHGIIVSIVGTLIAIAITAALMMIALYLMRGISKTALSVTIRIIGLFIMAIGAQMMITGAGGIVLNLIKGA”, the protein production result is reported as “failed”. In the case of “MLKILVRLYLVIIVAYAGALLFIPDTIVGLFRDRFMAYNLDQAKGVQALIVRQFRQAPREQWPAVEQELASDFAPLELQLLRRDQAGLSDEEQARLEQGLYAVRIAEWGYYETVLAPLDKEWLIRLHSPPDPLDINVLSWGVTVLIGAAMLGCLLLWVWPHWRDLERLKETARRLGQGQMAERTHISPHSNIGELAGVFDTMASDLERHVNQQRELLNAVSHELRTPLTRLDFGLVLLFDEVPPASRKRLLELVGHVRELDELVLELLSYSRLYNADQARERVEVSLLELVDSVLGGFAEELDGRGIQWEVRAEGELPRFVLDPRLTARAVQNLVRNAMRYCDESLLLRLRLEADGACLLTVEDDGIGVPVEERERVFQPFYRLDRSRDRNTGGFGLGLAISRRAIEGQGGTLTLAQSALGGAQFRIRLPAGG” it was “failed”. The same measure for “MLKKGNEMKAVIVYASVHHGNTKKIEEAMASVISADVIDVTRKIKPDLSGYDVIGFVSGVYFHTFHEGIKKCIEENMSSKGQKVFLVATCGLGYRDYTKGMKDTLAKKDVLCMGSFQCRGWDTYGIFGKIGGIAKKHPNDRDLKEAQEFVLKTVCKTNNLEHHHHHH”: “failed”; for “MLKKMSPSDWRPFYVSIARNMTNGIRGSIGGRLASWACLFQVTCGVAMKMPTLLSVSLLAALSLPAAAQTAPPQDVPFDGTLKIDVDATDLAHRIFKVNITMPAKPGPMTLLYPQWIPGDHSPTGPIDKLAGLVIKVDGKVVPWKRDQFDVYAFKVDVPQGATELTAEFKFLSPQAGNQGRVMMTPEMLNLQWNTTALYPAGYVVRNIKVQASVTLPAGWSYATALETDRRVGDTVSFKPIDFDDLVDSPMFAGKYYKRVELSTGKQPVYLNVFADEAKSLEAKPEQIKAHAALVQQMDKLYGARHFDHYEFLLALTKKLGGIGLEHHRSSENSGPPNYFTEWDKSWTMRDLLAHEFNHSWNGKYRRGADLSTPNFNVPMGDSLLWLYEGQTQFWGEVLAARSGLWTQDQARDMLAGVAATYERGRPGMTWRTLQDTTNDPTMSMRRSKPYRSYQMSEDYYSGAQMMWLEVDSKLRALTNNKRSIDDFAKAFFGMKNGDWDVNPYTFDDIVSTLNGVAAYDWASLLRERMDGHGSLNGGIEANGWKLVYNDEPNLAIKTYESNKNDVSLTYSLGLSLEGSGEVSEVLWDSPAFNAGIINGNSIVAVNGRAFSADVIKDAIKAAKGTAAPIELLVKRGDRYETVRIDYHGGLLYPHLERIAGKPDRLGELYKAR”: “failed”; for “MLKKYIPLVARSFLAVIFIYAGVNKVFNFAQTSESMAKAGLPIVGVLLIFTIAFQILGGLSIILGYKAEIGAILLIIFLIPATIVFHNPFADPSQFNNFFKNLSIIGGLLLILAYGSGTLSLEASDRSSYVSQPEE”: “failed”. The same measure for “MLKLLWIALGGSLGALCRYGLSVLARWGLPPTVPWGTLAANLVGCFLIGGLWVLAAQYSFSEELRVFIFTGGIGSLTTFSTYSLESLLLLREGRVWAGLANVLVSNVLGLVLVAIGAGCALFLLGGPVAAFGA”: “failed”.

As to “MLKMKNNGGGCLAYISDCSVYLPVWKLKRDEISKETGMPSMGGERAVAHWDEDSITMAVEAARKFDGAFDAVIFASSSPPFRIKQCASFIASALDLPDSTFTMDITDTMRAATDALITANEFVDSGRFSRVLVVAGDKIPTKPGTLYEQLYGDAAAAVVVEKEGGAKILGYSTSTKPLPGSWMLADDDTVRDYDMRVDARYGYAASVQKAAMPLFAKLGLSPADIDRIVASAPDPKSYQGLLKAVGARPEEFYFDSVGIAGSAHPLLLLATQLEREGRILLGGYGEGADVIAVEIEQAMDSNMGRMLESRKEISYGDYLFNRGFVGVRDAPDRPSLTKFWRDEKSIIRFYGMKCKSCGTVSYPISRCCIECGAKDNYEEVRLGERGKIYTFTIDYLVMPGNYAGDGVHPHFIAVVDLDGGGRVLFELTDTLRDFSGVECDAEVERTFRLLFEKNRFRYYGWKARLPRLEHHHHHH”, the protein production entry was “not failed”.
